Measured values reported in PMC7230020 (ACS chemical biology, 2020).
Like-named read-outs stand apart in the source and are kept apart here. Numbered stars: 1 amine (or outer) side, 2 acyl side, 3 side chain; on linkers, the order of the positions; unused ones are H or OH. Square brackets hold non-standard residues; d marks the D form. Acd = acridonylalanine, O=C([C@H](Cc1ccc2[nH]c3ccccc3c(=O)c2c1)N[*:1])[*:2]

T1: activated RecA (RecA*), E. coli RecA polymerised on ssDNA with ATPγS (E. coli, UniProt P0A7G6 1-353)
T1 sequence (looked up): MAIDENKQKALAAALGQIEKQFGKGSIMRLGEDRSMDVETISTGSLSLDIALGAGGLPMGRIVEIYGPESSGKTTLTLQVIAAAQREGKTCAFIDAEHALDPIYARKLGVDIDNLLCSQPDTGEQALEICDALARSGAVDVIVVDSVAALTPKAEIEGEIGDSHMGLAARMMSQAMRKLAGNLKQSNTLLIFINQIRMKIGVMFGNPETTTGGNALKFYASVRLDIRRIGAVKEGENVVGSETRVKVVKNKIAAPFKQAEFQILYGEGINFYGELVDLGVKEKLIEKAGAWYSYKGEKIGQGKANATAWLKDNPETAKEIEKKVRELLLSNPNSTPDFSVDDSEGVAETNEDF


Columns and labels:
Assay in all cases: fluorescence polarisation
[1] = molecular target: T1, activated RecA (RecA*), E. coli RecA …
[2] = molecular target: T1, activated RecA (RecA*), E. coli RecA …; remark: listed apart in the source
[3] = molecular target: T1, activated RecA (RecA*), E. coli RecA …; remark: listed apart in the source

binding result [1] | koff [2] [s⁻¹] | Kd [3] [nM] | koff [3] [s⁻¹] | kon [3] [M⁻¹ s⁻¹] | Binder
binds | – | – | – | – | LexA-S119A, unlabeled catalytically inactive full-length LexA(1–202) (natural protein, E. coli, UniProt P0A7C2 1-202, looked up) MKALTARQQEVFDLIRDHISQTGMPPTRAEIAQRLGFRSPNAAEEHLKALARKGVIEIVSGASRGIRLLQEEEEGLPLVGRVAAGEPLLAQQHIEGHYQVDPSLFKPNADFLLRVSGMAMKDIGIMDGDLLAVHKTQDVRNGQVVVARIDDEVTVKRLKKQGNKVELLPENSEFKPIVVDLRQQSFTIEGLAVGVIRNGDWL
– | 0.093 | 790 | 0.048 | 61000 | LexA-S119A-Q161δ, full-length E. coli LexA with acridonylalanine (Acd) at position 161 (natural protein) MKALTARQQEVFDLIRDHISQTGMPPTRAEIAQRLGFRSPNAAEEHLKALARKGVIEIVSGASRGIRLLQEEEEGLPLVGRVAAGEPLLAQQHIEGHYQVDPSLFKPNADFLLRVSGMAMKDIGIMDGDLLAVHKTQDVRNGQVVVARIDDEVTVKRLKK[Acd]GNKVELLPENSEFKPIVVDLRQQSFTIEGLAVGVIRNGDWL
